# Test system: Escherichia coli TOP10
# Assay: shrunken log2 fold change of peptide-encoding DNA abundance (4.5 h post-induction vs induction); higher = less antimicrobial activity (less host growth inhibition)
# Settings: time post-induction: 4.5 h; library: site-saturation at positions 5, 18, 19, 20
# 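Note: peptides expressed intracellularly from a pBAD plasmid library in pooled LB shake-flask culture, induced with 0.3% L-arabinose, DNA abundance read by NGS, three biological replicates, DESeq2 with apeglm shrinkage.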
row,Sequence,shrunken log2 fold change
1,RRIRYRPPRLPRPRPRPGMVPRP,2
2,RRIRMRPPRLPRPRPRPDERPRP,1.11
3,RRIRQRPPRLPRPRPRPNVGPRP,-0.0447
4,RRIRPRPPRLPRPRPRPHQYPRP,-0.623
5,RRIRARPPRLPRPRPRPRPTPRP,0.867
6,RRIRSRPPRLPRPRPRPKSMPRP,-0.269
7,RRIRIRPPRLPRPRPRPHLRPRP,-0.00802
8,RRIRQRPPRLPRPRPRPCPLPRP,-0.0641
9,RRIRSRPPRLPRPRPRPGRLPRP,0.00392
10,RRIRTRPPRLPRPRPRPSEIPRP,-0.242
11,RRIRARPPRLPRPRPRPTVYPRP,-0.00696
12,RRIRDRPPRLPRPRPRPSRCPRP,0.346
13,RRIRWRPPRLPRPRPRPKLCPRP,0.0167
14,RRIRLRPPRLPRPRPRPIMEPRP,-0.193
15,RRIRTRPPRLPRPRPRPNHTPRP,-0.312
16,RRIRTRPPRLPRPRPRPPGWPRP,0.758
17,RRIRMRPPRLPRPRPRPNDSPRP,-0.0147
18,RRIRDRPPRLPRPRPRPACMPRP,0.242
19,RRIRSRPPRLPRPRPRPFAGPRP,-0.00284
20,RRIRTRPPRLPRPRPRPPNYPRP,-0.101
21,RRIRHRPPRLPRPRPRPCKPPRP,-0.314
22,RRIRHRPPRLPRPRPRPLWVPRP,-0.142

row,Sequence,shrunken log2 fold change
1,RRIRARPPRLPRPRPRPTTFPRP,0.177
2,RRIRVRPPRLPRPRPRPCKDPRP,-0.0644
3,RRIRVRPPRLPRPRPRPPYEPRP,-0.0422
4,RRIRHRPPRLPRPRPRPCWFPRP,-0.499
5,RRIRNRPPRLPRPRPRPMISPRP,-0.0707
6,RRIRGRPPRLPRPRPRPLRKPRP,1.12
7,RRIRFRPPRLPRPRPRPISYPRP,-0.778
8,RRIRMRPPRLPRPRPRPDHSPRP,0.318
9,RRIRYRPPRLPRPRPRPCVSPRP,-0.0134
10,RRIRARPPRLPRPRPRPPTFPRP,0.158
11,RRIRDRPPRLPRPRPRPCFTPRP,0.0373
12,RRIRCRPPRLPRPRPRPCWKPRP,-0.174
13,RRIRCRPPRLPRPRPRPMLLPRP,0.00507
14,RRIRCRPPRLPRPRPRPMMQPRP,0.0143
15,RRIRCRPPRLPRPRPRPGSPPRP,0.169
16,RRIRDRPPRLPRPRPRPKTYPRP,-0.227
17,RRIRTRPPRLPRPRPRPNDRPRP,0.21
18,RRIRKRPPRLPRPRPRPPVHPRP,0.273
19,RRIRPRPPRLPRPRPRPCGNPRP,-0.0502
20,RRIRPRPPRLPRPRPRPGQNPRP,0.0194
21,RRIRWRPPRLPRPRPRPRDFPRP,-0.031
22,RRIRNRPPRLPRPRPRPMAFPRP,-0.192

row,Sequence,shrunken log2 fold change
1,RRIRFRPPRLPRPRPRPGPTPRP,0.404
2,RRIRYRPPRLPRPRPRPEQSPRP,0.0157
3,RRIRQRPPRLPRPRPRPILCPRP,-0.0627
4,RRIRARPPRLPRPRPRPGRIPRP,0.148
5,RRIRWRPPRLPRPRPRPAHSPRP,0.321
6,RRIRMRPPRLPRPRPRPELNPRP,0.0722
7,RRIRNRPPRLPRPRPRPTRDPRP,0.386
8,RRIRFRPPRLPRPRPRPINEPRP,-0.11
9,RRIRYRPPRLPRPRPRPKSCPRP,-0.0262
10,RRIRGRPPRLPRPRPRPHYKPRP,-0.0643
11,RRIRIRPPRLPRPRPRPETLPRP,-0.102
12,RRIRIRPPRLPRPRPRPRLCPRP,0.0776
13,RRIRHRPPRLPRPRPRPSANPRP,-0.228
14,RRIRGRPPRLPRPRPRPRIEPRP,0.249
15,RRIRTRPPRLPRPRPRPGMIPRP,-0.0261
16,RRIRSRPPRLPRPRPRPKKDPRP,0.104
17,RRIRYRPPRLPRPRPRPDRKPRP,-0.157
18,RRIRGRPPRLPRPRPRPHVGPRP,0.0375
19,RRIRYRPPRLPRPRPRPEFSPRP,-0.307
20,RRIRQRPPRLPRPRPRPAYKPRP,-0.534
21,RRIRNRPPRLPRPRPRPSLVPRP,-0.292
22,RRIRYRPPRLPRPRPRPIGTPRP,-0.1

row,Sequence,shrunken log2 fold change
1,RRIRHRPPRLPRPRPRPSRGPRP,-0.0716
2,RRIRHRPPRLPRPRPRPWCHPRP,-0.00107
3,RRIRPRPPRLPRPRPRPGMIPRP,0.0107
4,RRIRWRPPRLPRPRPRPYIVPRP,-0.727
5,RRIRTRPPRLPRPRPRPIIGPRP,0.0211
6,RRIRLRPPRLPRPRPRPYLAPRP,-0.756
7,RRIRVRPPRLPRPRPRPNQVPRP,-0.185
8,RRIRKRPPRLPRPRPRPVQYPRP,0.071
9,RRIRYRPPRLPRPRPRPKTLPRP,-0.459
10,RRIRQRPPRLPRPRPRPANHPRP,-0.728
11,RRIRGRPPRLPRPRPRPYCDPRP,0.226
12,RRIRCRPPRLPRPRPRPYRGPRP,-0.992
13,RRIRCRPPRLPRPRPRPRIAPRP,0.0204
14,RRIRRRPPRLPRPRPRPRCRPRP,1.57
15,RRIRNRPPRLPRPRPRPKFMPRP,-0.0904
16,RRIRSRPPRLPRPRPRPKYMPRP,-0.677
17,RRIRSRPPRLPRPRPRPDVCPRP,0.0421
18,RRIRCRPPRLPRPRPRPCVEPRP,-0.0788
19,RRIRVRPPRLPRPRPRPLPDPRP,-0.0431
20,RRIRPRPPRLPRPRPRPREWPRP,0.151
21,RRIRTRPPRLPRPRPRPLTIPRP,-0.315
22,RRIRARPPRLPRPRPRPKCYPRP,0.00925

row,Sequence,shrunken log2 fold change
1,RRIRRRPPRLPRPRPRPIFIPRP,-0.0166
2,RRIRWRPPRLPRPRPRPHAFPRP,0.154
3,RRIRIRPPRLPRPRPRPKKPPRP,0.0487
4,RRIRDRPPRLPRPRPRPNGCPRP,-0.00152
5,RRIRFRPPRLPRPRPRPCFSPRP,-0.759
6,RRIRERPPRLPRPRPRPMCIPRP,-0.133
7,RRIRGRPPRLPRPRPRPSQKPRP,0.0248
8,RRIRDRPPRLPRPRPRPIKRPRP,0.000716
9,RRIRCRPPRLPRPRPRPYPYPRP,-0.248
10,RRIRVRPPRLPRPRPRPLNYPRP,-0.621
11,RRIRRRPPRLPRPRPRPNDKPRP,-0.178
12,RRIRSRPPRLPRPRPRPQGDPRP,0.36
13,RRIRARPPRLPRPRPRPQQNPRP,0.166
14,RRIRMRPPRLPRPRPRPPGSPRP,0.904
15,RRIRVRPPRLPRPRPRPGVHPRP,0.107
16,RRIRDRPPRLPRPRPRPPKTPRP,0.257
17,RRIRHRPPRLPRPRPRPSWDPRP,-0.205
18,RRIRRRPPRLPRPRPRPHFTPRP,-0.0671
19,RRIRKRPPRLPRPRPRPPVFPRP,-0.00134
20,RRIRKRPPRLPRPRPRPGKAPRP,-0.0571
21,RRIRVRPPRLPRPRPRPAIYPRP,-0.294
